Results on five molecules are retold here after patent publication US20140087972, “METHOD OF IMMOBILISING RNA ONTO A SURFACE” (UNIVERSITY OF PORTSMOUTH, published 2014).

Data set [1] deals with T1, streptavidin (UniProt P22629 P22629:25-183). Put plainly: sandwich print slide capture, 37 C, PBS washes. To be noted: chain copies: 4 inferred.
The target in data set [2] is T1, streptavidin. The data set is described as follows: no-aptamer control, sandwich print slide capture, 37 C, PBS washes. To be noted: chain copies: 4 inferred; label: Cy3-UTP incorporated. As for the experimental part: (§1) ˜10 μl spots of 5 mM tobramycin or 16.6 μM streptavadin in PBS were pipetted onto NHS-activated slides (Schott Nexterion Slide H). The slides were incubated at 37° C. in a humidified petri dish for ˜1 hour. The slides were washed ˜3× with ˜5 ml PBST (0.5% Tween) and ˜1× with H₂O. The remainder of the NHS-activated surface was blocked with ethanolamine. ˜5 ml of 50 mM ethanolamine-HCl was used to cover the slides and they were incubated at room temperature for ˜1 hr. The slides were washed ˜3× with ˜5 ml PBST (0.5% Tween), 1× with H₂O and dried in air.
(§2) Following incubation at 37° C. for ˜1-4 hrs, the slides were separated and the in vitro transcription mix was recovered from the slide surface using a pipette. The DNA template slide was washed ˜3× with ˜5 ml PBS, ˜1× with ˜5 ml H₂O and air dried. The RNA-binding slide was washed ˜3× with ˜5 ml PBS, ˜1×˜5 ml H₂O and air dried. Cy-labelled RNA was visualized at 532 nm for Cy3 or 639 nm for Cy5. For unlabelled RNA, the RNA-binding slide was stained by covering the slide with ˜5 ml SYBR gold (Invitrogen, Paisley, UK; 5 μl of SYBR gold in ˜25 ml PBS) for 10 minutes and visualised with a UV transilluminator.
(§3) Only the MicASAApt, incorporating the stretpavadin aptamer, bound to the streptavidin RNA-binding slide. […]

Data set [3] concerns the target T1, streptavidin. The data set is described as follows: bound streptavidin spot on slide also carrying tobramycin spot, 37 C, PBS washes. The note with it: chain copies: 4 inferred; label: Cy3-UTP incorporated. The method, then:
as §1, §2

Data set [4] deals with T1, streptavidin. The data set is described as follows: sandwich print slide capture, T7 transcription mix, 37 C, PBS washes. To be noted: chain copies: 4 inferred; label: Cy3-UTP incorporated. As for the experimental part:
as §1, §2, §3

T1 sequence (P22629 25-183, one chain of several): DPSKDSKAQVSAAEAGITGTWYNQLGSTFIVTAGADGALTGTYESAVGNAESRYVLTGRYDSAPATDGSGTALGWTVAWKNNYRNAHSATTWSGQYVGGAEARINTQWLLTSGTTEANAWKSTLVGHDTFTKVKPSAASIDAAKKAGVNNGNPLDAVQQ

B1: Qrr1SAApt RNA (ssRNA)
RNA: GGGUGACCCGCAAGGGUCACCUAGCCAACUGACGUUGUUAGUGAAUAAUCAAUGUUCACAAAUAACAGCCAAUAGACUCAUUCUAUUGGCUAUUUUUUUUUUUUUUUUUUUUUUUUUUUUGUGUGACCGACCAGAAUCAUGCAAGUGCGUAAGAUAGUCGCGGGCCGGGCACACA
As to B1, in the data set with streptavidin [1] (label: Cy5-UTP incorporated), the binding result is “binds”.

B2: U1SAApt RNA (ssRNA)
RNA: GGGUAUCCAUUGCACUCCGGAUGCCUUUUUUUUUUUUUUUUUUUUUGUGUGACCGACCAGAAUCAUGCAAGUGCGUAAGAUAGUCGCGGGCCGGGCACACA
As to B2, the binding result in the data set with streptavidin [1] (label: Cy3-UTP incorporated) is recorded as “binds”.

B3: MicA RNA without aptamer (ssRNA)
RNA: GGGGAAAGACGCGCAUUUGUUAUCAUCAUCCCUGAAUUCAGAGAUGAAAUUUUGGCCACUCACGAGUGGCCUUUU
As for B3, the binding result in the data set with streptavidin [2] is on record as “no binding”.

B4: M-SSAApt RNA (ssRNA)
RNA: GAAAGACGCGCAUUUGUUAUCAUCAUCCCUGGGAAAGCGAGGCUUUCCCUGGCCACUCACGAGUGGCCUUUUACACACACACACACACACACGCAUGCAUACCGACCAGAAUCAUGCAAGUGCGUAAGAUAGUCGCGGGCCGGGAUGCAUGC
In the case of B4, the binding result in the data set with streptavidin [3] was “binds”.

B5: MicASAApt RNA (ssRNA)
RNA: GGGGAAAGACGCGCAUUUGUUAUCAUCAUCCCUGAAUUCAGAGAUGAAAUUUUGGCCACUCACGAGUGGCCUUUUACACACACACACACACACACGCAUGCAUACCGACCAGAAUCAUGCAAGUGCGUAAGAUAGUCGCGGGCCGGGAUGCAUGC
As for B5, the binding result with streptavidin [4] was “binds”.
